# Measurements reported in patent US20240092835A1, “NOVEL PEPTIDES CAPABLE OF ALTERING NK CELL ACTIVITY” (Massachusetts Institute of Technology, priority 2022, published 2024).
# Assays:
# [1] = target: CD94/NKG2A (UniProt Q13241); assay: SPR steady state, Biacore T200, pMHC single chain trimer immobilized, CD94/NKG2A analyte
# [2] = target: CD94/NKG2C (UniProt Q13241); assay: SPR steady state, Biacore T200, pMHC single chain trimer immobilized, CD94/NKG2C analyte
Substance,Kd [1] [µM],Kd [2] [µM]
GTF3C5293-301 peptide-HLA-E complex (single chain trimer) (from UniProt P61769 21-119; P13747 22-297) (peptide-MHC),28.1,92.4
CREB3L1419-427 peptide-HLA-E complex (single chain trimer) (from UniProt P61769 21-119; P13747 22-297) (peptide-MHC),3.3,9.8
PISD55-63 peptide-HLA-E complex (single chain trimer) (from UniProt P61769 21-119; P13747 22-297) (peptide-MHC),12.1,16
BFAR263-271 peptide-HLA-E complex (single chain trimer) (from UniProt P61769 21-119; P13747 22-297) (peptide-MHC),0.8,1.8
AKAP6388-396 peptide-HLA-E complex (single chain trimer) (from UniProt P61769 21-119; P13747 22-297) (peptide-MHC),4.1,15.6
